# Paper PMC5401896 (2017)
# T1: CD20 (Homo sapiens, UniProt P11836)
# T1 chain: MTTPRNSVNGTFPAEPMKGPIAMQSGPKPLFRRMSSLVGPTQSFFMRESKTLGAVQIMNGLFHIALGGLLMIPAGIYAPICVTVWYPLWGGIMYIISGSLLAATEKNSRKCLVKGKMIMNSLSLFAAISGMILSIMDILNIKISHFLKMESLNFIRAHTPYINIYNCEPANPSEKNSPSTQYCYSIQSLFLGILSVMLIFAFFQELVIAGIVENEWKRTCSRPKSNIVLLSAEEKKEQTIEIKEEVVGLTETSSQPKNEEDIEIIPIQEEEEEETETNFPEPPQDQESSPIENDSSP
# How the values were obtained:
# CD20 [1] = biological target: T1, CD20; assay: real-time cell binding (one-to-two, Daudi)
# CD20 [2] = biological target: T1, CD20; assay: real-time cell binding (one-to-one, Ramos)
# CD20 [3] = biological target: T1, CD20; assay: real-time cell binding (bivalent, Daudi)
binder,measurement,setting,value
"Rituximab (antibody, V domains shown) VH: QVQLQQPGAELVKPGASVKMSCKASGYTFTSYNMHWVKQTPGRGLEWIGAIYPGNGDTSYNQKFKGKATLTADKSSSTAYMQLSSLTSEDSAVYYCARSTYYGGDWYFNVWGAGTTVTVSA VL: QIVLSQSPAILSASPGEKVTMTCRASSSVSYIHWFQQKPGSSPKPWIYATSNLASGVPVRFSGSGSGTSYSLTISRVEAEDAATYYCQQWTSNPPTFGGGTKLEIK",Kd,CD20 [1],0.2 nM
same,Kd,CD20 [2],0.7 nM
same,Kd,CD20 [3],7.8 nM
